Patent US20260108617A1, “AUTO-TUNING DRUG REGULATOR CONSTRUCTIONS” (priority 2023, published 2026)

Assays:
[1] = Cell uptake by imaging of conjugated dancyl fluorophore; assay type: cell-based; settings: data not shown
Source text: Compound 9 was shown efficacious in these experiments.

[2] = biological target: recombinant prostasin enzyme (Homo sapiens, UniProt Q16651); assay: Incubation with recombinant prostasin enzyme, LC/MS analysis of incapacitation byproduct; assay type: biochemical
Method: This is not observed in absence of the enzyme incubation.
Then in FIG. 10, incubation of the drug alone with the prostasin enzyme can be analyzed by LC/MS for the byproduct of incapacitation (the alkylation of the decoy yielding a 1-methylpiperazine-one).
The drug could be tested in similar ways as the other compounds.
The strategy of this example can be generalized for any peptide based PROTAC for TrkA or any other target.

Chain of recombinant prostasin enzyme (Q16651 33-343, species assumed): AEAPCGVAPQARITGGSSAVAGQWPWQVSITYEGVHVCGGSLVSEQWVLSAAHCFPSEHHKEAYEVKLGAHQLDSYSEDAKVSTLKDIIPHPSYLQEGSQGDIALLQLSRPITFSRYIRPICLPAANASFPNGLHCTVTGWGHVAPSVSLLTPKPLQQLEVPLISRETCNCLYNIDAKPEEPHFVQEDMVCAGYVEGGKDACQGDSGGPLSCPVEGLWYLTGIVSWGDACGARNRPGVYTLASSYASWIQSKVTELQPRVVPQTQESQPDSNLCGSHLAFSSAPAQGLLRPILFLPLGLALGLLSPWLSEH

| Sequence | cell uptake [1] | incapacitation byproduct seen by LC/MS ([2]; absence of the enzyme incubation) | incapacitation byproduct seen by LC/MS ([2]; incubated with recombinant prostasin enzyme) |
| --- | --- | --- | --- |
| RRARRPRGRQAR | demonstrated for cell uptake |  |  |
| LFLGQARGGRRRRPPP |  | not observed | independent activator byproduct |
